Reference: patent US20180155451A1 (published 2018)

T1: FcγRIIb extracellular domain with C-terminal His tag (human, UniProt P31994 43-217)
T1 construct: extracellular domain; Soluble receptor expressed in FreeStyle293 cells, used as analyte in Biacore; also called FcgRIIb; 2b; not shown: His tag attached to the C terminus
T1 sequence (looked up): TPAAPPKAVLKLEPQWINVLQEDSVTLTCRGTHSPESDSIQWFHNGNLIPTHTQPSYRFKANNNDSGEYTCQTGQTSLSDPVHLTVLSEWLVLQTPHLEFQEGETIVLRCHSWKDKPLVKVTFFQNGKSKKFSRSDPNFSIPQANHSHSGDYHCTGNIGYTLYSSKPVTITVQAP


Columns and labels:
[1] = target: T2, FcγRIIIa extracellular domain with C-terminal His tag (human, UniProt P08637 17-208); experiment: SPR (Biacore); ratio of He/Con_3a (FcγRIIIa) to He/Con_2b (FcγRIIb)
T2 construct: extracellular domain; Soluble receptor expressed in FreeStyle293 cells, used as analyte in Biacore; also called FcgRIIIa; 3a; not shown: His tag attached to the C terminus
T2 sequence (P08637 17-208): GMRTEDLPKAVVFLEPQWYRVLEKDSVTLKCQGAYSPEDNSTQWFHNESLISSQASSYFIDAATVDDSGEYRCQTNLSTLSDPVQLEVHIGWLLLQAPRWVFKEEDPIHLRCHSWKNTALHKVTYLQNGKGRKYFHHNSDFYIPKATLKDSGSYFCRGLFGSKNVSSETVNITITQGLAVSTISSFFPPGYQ
In short: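 Interaction analysis: He antibodies immobilized indirectly through captured antigen peptide (CM5 amine-coupled or SA-biotin), FcγR analytes flowed in running buffer at 25 °C, glycine-HCl pH 1.5 regeneration.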

[2] = target: T1, FcγRIIb extracellular domain with …; experiment: SPR (Biacore), antibody captured via antigen peptide, FcγR as analyte; binding amount relative to control heterodimerized antibody
Procedure: (§1) The heterodimerized antibodies He Abs in which one of the H chains was introduced with an alteration were assayed for their binding activities to each activating FcγR and inhibitory FcγR according to the method described in Example 4. […] The activating FcγRs in FIGS. 26, 27, 28, and 29 are FcγRIa, FcγRIIa (R), FcγRIIa (H), and FcγRIIIa, respectively.
(§2) Analysis of interaction between objective antibody and the FcγR was carried out using Biacore T100 (GE Healthcare). HBS-EP+ (GE Healthcare) was used as the running buffer, and the measurement temperature was set to 25° C. Chips produced by immobilizing the antigen peptide by the amine coupling method to a Series S Sencor Chip CM5 (GE Healthcare), or alternatively, chips produced by allowing preliminarily biotinylated antigen peptides to interact with and immobilize onto a Series S Sensor Chip SA (certified) (GE Healthcare) were used. Antibodies of interest were captured onto an antigen peptide-immobilized chip, and allowed to interact to each FcγR diluted with running buffer. To regenerate and repeatedly use the chip, the antibodies captured on the chip were washed off by reacting 10 mM glycine-HCl, pH 1.5.

[3] = target: T2, FcγRIIIa extracellular domain with …; experiment: as above
Procedure: as §1, §2

FcgRIIIa F = target: T3, FcgRIIIa F (human, UniProt P08637 17-208); experiment: SPR (Biacore); binding of the heterodimerized antibody relative to GpH7-A5/GpH7-B3/GpL16-k0 = 100
T3 construct: extracellular domain; also called FcγRIIIa F; 3aF; not shown: His tag attached to the C terminus
T3 sequence (P08637 17-208): as above

Binder	IIIa/IIb (He_3a/2b) [1]	He/Con_2b (IIb binding) [2]	He/Con_3a (IIIa binding) [3]	He/Con_3aF (FcgRIIIa F)
GpH7-A5/GpH7-B3 variant I336_02A/GpL16-k0 (heterodimerized antibody, He Ab) (antibody, human IgG1, kappa, Anti-glypican-3 IgG1 heterodimerized antibody; the alteration stands only in the GpH7-B3 chain; Positions in EU numbering; also called I336A) heavy 1: not shown heavy 2: not shown light: DIVMTQSPLSLPVTPGEPASISCQASESLVHSNRNTYLHWYLQKPGQSPQLLIYKVSNRFSGVPDRFSGSGSGTDFTLKISRVEAEDVGVYYCSQNTHVPPTFGQGTKVEIERTVAAPSVFIFPPSDEQLKSGTASVVCLLNNFYPREAKVQWKVDNALQSGNSQESVTEQDSKDSTYSLSSTLTLSKADYEKHKVYACEVTHQGLSSPVTKSFNRGEC	1.31 ratio	84.9 relative binding, GpH7-A5/GpH7-B3/GpL16-k0 = 100	111 relative binding, GpH7-A5/GpH7-B3/GpL16-k0 = 100	
GpH7-A5/GpH7-B3 variant (H268D)/GpL16-k0 (antibody, human IgG1, kappa, also called H268_09D; He Ab) heavy 1: not shown heavy 2: not shown light: DIVMTQSPLSLPVTPGEPASISCQASESLVHSNRNTYLHWYLQKPGQSPQLLIYKVSNRFSGVPDRFSGSGSGTDFTLKISRVEAEDVGVYYCSQNTHVPPTFGQGTKVEIERTVAAPSVFIFPPSDEQLKSGTASVVCLLNNFYPREAKVQWKVDNALQSGNSQESVTEQDSKDSTYSLSSTLTLSKADYEKHKVYACEVTHQGLSSPVTKSFNRGEC				195
GpH7-A5/GpH7-B3 variant (A330F)/GpL16-k0 (antibody, human IgG1, kappa, also called A330_04F; He Ab) heavy 1: not shown heavy 2: not shown light: DIVMTQSPLSLPVTPGEPASISCQASESLVHSNRNTYLHWYLQKPGQSPQLLIYKVSNRFSGVPDRFSGSGSGTDFTLKISRVEAEDVGVYYCSQNTHVPPTFGQGTKVEIERTVAAPSVFIFPPSDEQLKSGTASVVCLLNNFYPREAKVQWKVDNALQSGNSQESVTEQDSKDSTYSLSSTLTLSKADYEKHKVYACEVTHQGLSSPVTKSFNRGEC				144
GpH7-A5/GpH7-B3 variant I336_10E/GpL16-k0 (heterodimerized antibody, He Ab) (antibody, human IgG1, kappa, Anti-glypican-3 IgG1 heterodimerized antibody; the alteration stands only in the GpH7-B3 chain; Positions in EU numbering; also called I336E) heavy 1: not shown heavy 2: not shown light: DIVMTQSPLSLPVTPGEPASISCQASESLVHSNRNTYLHWYLQKPGQSPQLLIYKVSNRFSGVPDRFSGSGSGTDFTLKISRVEAEDVGVYYCSQNTHVPPTFGQGTKVEIERTVAAPSVFIFPPSDEQLKSGTASVVCLLNNFYPREAKVQWKVDNALQSGNSQESVTEQDSKDSTYSLSSTLTLSKADYEKHKVYACEVTHQGLSSPVTKSFNRGEC	1.33 ratio	89.8 relative binding, GpH7-A5/GpH7-B3/GpL16-k0 = 100	119 relative binding, GpH7-A5/GpH7-B3/GpL16-k0 = 100	

Other lines, results leading:

IIIa/IIb (He_3a/2b) [1]	He/Con_2b (IIb binding) [2]	He/Con_3a (IIIa binding) [3]	He/Con_3aF (FcgRIIIa F)	Binder
1.58 ratio	114 relative binding, GpH7-A5/GpH7-B3/GpL16-k0 = 100	181 relative binding, GpH7-A5/GpH7-B3/GpL16-k0 = 100		GpH7-A5/GpH7-B3 variant K334_10E/GpL16-k0 (heterodimerized antibody, He Ab) (antibody, human IgG1, kappa, Anti-glypican-3 IgG1 heterodimerized antibody; the alteration stands only in the GpH7-B3 chain (K439E); GpH7-A5 carries D356K/H435R; Positions in EU numbering; also called K334E) heavy 1: not shown heavy 2: not shown light: DIVMTQSPLSLPVTPGEPASISCQASESLVHSNRNTYLHWYLQKPGQSPQLLIYKVSNRFSGVPDRFSGSGSGTDFTLKISRVEAEDVGVYYCSQNTHVPPTFGQGTKVEIERTVAAPSVFIFPPSDEQLKSGTASVVCLLNNFYPREAKVQWKVDNALQSGNSQESVTEQDSKDSTYSLSSTLTLSKADYEKHKVYACEVTHQGLSSPVTKSFNRGEC
1.31 ratio	111 relative binding, GpH7-A5/GpH7-B3/GpL16-k0 = 100	145 relative binding, GpH7-A5/GpH7-B3/GpL16-k0 = 100		GpH7-A5/GpH7-B3 variant K334_13S/GpL16-k0 (heterodimerized antibody, He Ab) (antibody, human IgG1, kappa, Anti-glypican-3 IgG1 heterodimerized antibody; the alteration stands only in the GpH7-B3 chain; Positions in EU numbering; also called K334S) heavy 1: not shown heavy 2: not shown light: DIVMTQSPLSLPVTPGEPASISCQASESLVHSNRNTYLHWYLQKPGQSPQLLIYKVSNRFSGVPDRFSGSGSGTDFTLKISRVEAEDVGVYYCSQNTHVPPTFGQGTKVEIERTVAAPSVFIFPPSDEQLKSGTASVVCLLNNFYPREAKVQWKVDNALQSGNSQESVTEQDSKDSTYSLSSTLTLSKADYEKHKVYACEVTHQGLSSPVTKSFNRGEC
1.59 ratio	58.2 relative binding, GpH7-A5/GpH7-B3/GpL16-k0 = 100	92.5 relative binding, GpH7-A5/GpH7-B3/GpL16-k0 = 100		GpH7-A5/GpH7-B3 variant I336_19Q/GpL16-k0 (heterodimerized antibody, He Ab) (antibody, human IgG1, kappa, Anti-glypican-3 IgG1 heterodimerized antibody; the alteration stands only in the GpH7-B3 chain; Positions in EU numbering; also called I336Q) heavy 1: not shown heavy 2: not shown light: DIVMTQSPLSLPVTPGEPASISCQASESLVHSNRNTYLHWYLQKPGQSPQLLIYKVSNRFSGVPDRFSGSGSGTDFTLKISRVEAEDVGVYYCSQNTHVPPTFGQGTKVEIERTVAAPSVFIFPPSDEQLKSGTASVVCLLNNFYPREAKVQWKVDNALQSGNSQESVTEQDSKDSTYSLSSTLTLSKADYEKHKVYACEVTHQGLSSPVTKSFNRGEC
1.28 ratio	68.2 relative binding, GpH7-A5/GpH7-B3/GpL16-k0 = 100	87.3 relative binding, GpH7-A5/GpH7-B3/GpL16-k0 = 100		GpH7-A5/GpH7-B3 variant I336_15Y/GpL16-k0 (heterodimerized antibody, He Ab) (antibody, human IgG1, kappa, Anti-glypican-3 IgG1 heterodimerized antibody; the alteration stands only in the GpH7-B3 chain; Positions in EU numbering; also called I336Y) heavy 1: not shown heavy 2: not shown light: DIVMTQSPLSLPVTPGEPASISCQASESLVHSNRNTYLHWYLQKPGQSPQLLIYKVSNRFSGVPDRFSGSGSGTDFTLKISRVEAEDVGVYYCSQNTHVPPTFGQGTKVEIERTVAAPSVFIFPPSDEQLKSGTASVVCLLNNFYPREAKVQWKVDNALQSGNSQESVTEQDSKDSTYSLSSTLTLSKADYEKHKVYACEVTHQGLSSPVTKSFNRGEC
